Here are results for two substances from paper PMC10336096.

For experiment [1], the target named is CXC chemokine receptor 1 (CXCR1) (human) (UniProt P25024).
In experiment [2] the target is trapped dimer (CXCL8^R26C) (human). In words: native MS; nanoESI-MS under non-denaturing conditions, 200 mM ammonium acetate; 5‒20 μM protein (methods; 2–7 μM in the results for the wild type); monomer to dimer.
In experiment [3] the target is wild-type CXCL8^1–72 (human). Described as above.

Sequence of CXC chemokine receptor 1 (CXCR1) (human) (P25024 whole entry): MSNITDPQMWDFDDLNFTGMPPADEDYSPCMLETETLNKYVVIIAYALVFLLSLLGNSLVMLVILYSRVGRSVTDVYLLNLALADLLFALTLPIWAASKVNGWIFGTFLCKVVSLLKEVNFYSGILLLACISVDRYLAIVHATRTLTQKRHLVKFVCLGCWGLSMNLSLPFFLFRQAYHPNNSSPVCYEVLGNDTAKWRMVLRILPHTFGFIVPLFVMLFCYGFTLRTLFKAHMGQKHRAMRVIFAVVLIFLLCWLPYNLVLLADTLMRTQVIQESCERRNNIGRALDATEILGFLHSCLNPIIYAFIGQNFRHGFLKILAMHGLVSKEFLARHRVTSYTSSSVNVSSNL

Usually stoichiometry N stands for the number of molecules, sites or subunits per partner or assembly. In experiment [1], trapped dimer (CXCL8^R26C) (ligand) returned a NanoBiT Gi1 dissociation assay in HEK293A cells; fold higher concentration needed than the trapped monomer (CXCL8^1–65) to elicit a response from CXCR1 of 32 fold and a NanoBiT Gi1 dissociation assay in HEK293A cells; fold higher concentration needed than the wild-type CXCL8 to elicit a response from CXCR1 of 85 fold. In experiment [2], this substance registered a stoichiometry N of 2.

In experiment [3], wild-type CXCL8^1–72 (ligand) registered a stoichiometry N of 2.
